Results reported in paper PMC10397247.

Experiments:
[1] = molecular target: T1, 4H432-AA; assay: two-hybrid library CCmax; conditions: mean of both orientations;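 note: natural log of median RNA to DNA barcode read ratio; higher means stronger binding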
T1 chain: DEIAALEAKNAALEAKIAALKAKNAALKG

[2] = molecular target: T2, 4H380-AA; assay: two-hybrid library CCmax; conditions: mean of both orientations;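 note: natural log of median RNA to DNA barcode read ratio; higher means stronger binding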
T2 chain: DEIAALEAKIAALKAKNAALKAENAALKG

[3] = molecular target: T3, 4H2760-AA; assay: two-hybrid library CCmax; conditions: mean of both orientations;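 note: natural log of median RNA to DNA barcode read ratio; higher means stronger binding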
T3 chain: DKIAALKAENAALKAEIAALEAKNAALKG

[4] = molecular target: T4, 4H2947-AA; assay: two-hybrid library CCmax; conditions: mean of both orientations;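 note: natural log of median RNA to DNA barcode read ratio; higher means stronger binding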
T4 chain: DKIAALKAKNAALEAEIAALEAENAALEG

[5] = molecular target: T5, 4H3094-AA; assay: two-hybrid library CCmax; conditions: mean of both orientations;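 note: natural log of median RNA to DNA barcode read ratio; higher means stronger binding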
T5 chain: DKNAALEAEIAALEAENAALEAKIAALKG

[6] = molecular target: T6, 4H3449-AA; assay: two-hybrid library CCmax; conditions: mean of both orientations;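 note: natural log of median RNA to DNA barcode read ratio; higher means stronger binding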
T6 chain: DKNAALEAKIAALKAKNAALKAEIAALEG

[7] = molecular target: T7, 4H2580-AA; assay: two-hybrid library CCmax; conditions: mean of both orientations
T7 chain: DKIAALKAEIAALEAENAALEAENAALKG

[8] = molecular target: T8, 4H2961-AA; assay: two-hybrid library CCmax; conditions: mean of both orientations
T8 chain: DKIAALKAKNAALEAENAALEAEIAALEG

[9] = molecular target: T9, 4H446-AA; assay: two-hybrid library CCmax; conditions: mean of both orientations
T9 chain: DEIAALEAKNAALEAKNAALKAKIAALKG

[10] = molecular target: T10, 4H1593-AA; assay: two-hybrid library CCmax; conditions: mean of both orientations
T10 chain: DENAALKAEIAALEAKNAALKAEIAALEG

[11] = molecular target: T11, 4H2604-AA; assay: two-hybrid library CCmax; conditions: mean of both orientations
T11 chain: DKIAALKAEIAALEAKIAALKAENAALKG

[12] = molecular target: T12, 4H2903-AA; assay: two-hybrid library CCmax; conditions: mean of both orientations
T12 chain: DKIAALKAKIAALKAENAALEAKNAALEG

[13] = molecular target: T13, 4H3915-AA; assay: two-hybrid library CCmax; conditions: mean of both orientations
T13 chain: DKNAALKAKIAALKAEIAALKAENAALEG

[14] = molecular target: T14, 4H249-AA; assay: two-hybrid library CCmax; conditions: mean of both orientations
T14 chain: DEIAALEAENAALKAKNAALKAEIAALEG

[15] = molecular target: T15, 4H1878-AA; assay: two-hybrid library CCmax; conditions: mean of both orientations
T15 chain: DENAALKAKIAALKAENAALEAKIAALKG

[16] = molecular target: T16, 4H1449-AA; assay: two-hybrid library CCmax
T16 chain: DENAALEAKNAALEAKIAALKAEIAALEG

[17] = molecular target: T17, 4H324-AA; assay: two-hybrid library CCmax; conditions: mean of both orientations
T17 chain: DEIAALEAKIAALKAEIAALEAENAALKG

[18] = molecular target: T18, 4H341-AA; assay: two-hybrid library CCmax
T18 chain: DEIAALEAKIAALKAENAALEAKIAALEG

[19] = molecular target: T19, 4H235-AA; assay: two-hybrid library CCmax; conditions: mean of both orientations
T19 chain: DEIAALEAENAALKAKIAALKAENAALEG

[20] = molecular target: T20, 4H3049-AA; assay: two-hybrid library CCmax; conditions: mean of both orientations
T20 chain: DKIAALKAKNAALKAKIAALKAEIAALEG

[21] = molecular target: T21, 4H63-AA; assay: two-hybrid library CCmax; conditions: mean of both orientations
T21 chain: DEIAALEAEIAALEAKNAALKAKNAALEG

[22] = molecular target: T22, 4H3629-AA; assay: two-hybrid library CCmax; conditions: mean of both orientations
T22 chain: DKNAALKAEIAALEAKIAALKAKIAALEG

[23] = molecular target: T23, 4H2774-AA; assay: two-hybrid library CCmax; conditions: mean of both orientations
T23 chain: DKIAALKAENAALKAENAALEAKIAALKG

[24] = molecular target: T24, 4H3974-AA; assay: two-hybrid library CCmax; conditions: mean of both orientations
T24 chain: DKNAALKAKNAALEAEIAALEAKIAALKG

[25] = molecular target: T25, 4H3777-AA; assay: two-hybrid library CCmax; conditions: mean of both orientations
T25 chain: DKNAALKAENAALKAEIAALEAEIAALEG

[26] = molecular target: T26, 4H3619-AA; assay: two-hybrid library CCmax; conditions: mean of both orientations
T26 chain: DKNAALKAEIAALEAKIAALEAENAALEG

[27] = molecular target: T27, 4H2621-AA; assay: two-hybrid library CCmax; conditions: mean of both orientations
T27 chain: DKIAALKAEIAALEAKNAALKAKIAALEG

[28] = molecular target: T28, O15-bS; assay: two-hybrid library CCNG1
T28 chain: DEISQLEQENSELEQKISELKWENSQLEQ

[29] = molecular target: T29, O8-bS; assay: two-hybrid library CCNG1
T29 chain: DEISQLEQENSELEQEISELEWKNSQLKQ

[30] = molecular target: T30, O7-bS; assay: two-hybrid library CCNG1
T30 chain: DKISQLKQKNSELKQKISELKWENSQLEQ

[31] = molecular target: T31, O4-bS; assay: two-hybrid library CCNG1
T31 chain: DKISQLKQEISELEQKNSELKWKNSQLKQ

[32] = molecular target: T32, O9-bS; assay: two-hybrid library CCNG1
T32 chain: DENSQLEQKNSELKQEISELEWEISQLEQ

[33] = molecular target: T33, O5-bS; assay: two-hybrid library CCNG1
T33 chain: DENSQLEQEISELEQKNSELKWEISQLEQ

[34] = molecular target: T34, O2-bS; assay: two-hybrid library CCNG1
T34 chain: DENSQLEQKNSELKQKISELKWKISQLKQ

[35] = molecular target: T35, O16-bS; assay: two-hybrid library CCNG1
T35 chain: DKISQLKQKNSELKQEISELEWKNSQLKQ

[36] = molecular target: T36, O3-bS; assay: two-hybrid library CCNG1
T36 chain: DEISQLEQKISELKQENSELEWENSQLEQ

[37] = molecular target: T37, O13-bS; assay: two-hybrid library CCNG1
T37 chain: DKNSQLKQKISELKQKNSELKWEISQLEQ

[38] = molecular target: T38, O6-bS; assay: two-hybrid library CCNG1
T38 chain: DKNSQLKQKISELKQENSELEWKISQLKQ

[39] = molecular target: T39, P6SHb; assay: two-hybrid library CCNG1
T39 chain: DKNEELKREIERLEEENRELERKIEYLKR

[40] = molecular target: T40, P4SHb; assay: two-hybrid library CCNG1
T40 chain: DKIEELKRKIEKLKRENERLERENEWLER

[41] = molecular target: T41, P7SHb; assay: two-hybrid library CCNG1
T41 chain: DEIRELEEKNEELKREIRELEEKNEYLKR

[42] = molecular target: T42, P5SHb; assay: two-hybrid library CCNG1
T42 chain: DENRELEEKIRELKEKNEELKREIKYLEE

[43] = molecular target: T43, P3SHb; assay: two-hybrid library CCNG1
T43 chain: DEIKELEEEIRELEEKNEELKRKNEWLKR

[44] = molecular target: T44, P8SHb; assay: two-hybrid library CCNG1
T44 chain: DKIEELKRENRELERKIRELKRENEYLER

[45] = molecular target: T45, P9SHb; assay: two-hybrid library CCNG1
T45 chain: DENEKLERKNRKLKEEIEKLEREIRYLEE

[46] = molecular target: T46, 4H492-bN; assay: two-hybrid library CCNG1
T46 chain: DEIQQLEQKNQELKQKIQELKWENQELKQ

[47] = molecular target: T47, 4H348-bN; assay: two-hybrid library CCNG1
T47 chain: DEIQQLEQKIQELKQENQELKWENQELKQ

[48] = molecular target: T48, 4H3277-bN; assay: two-hybrid library CCNG1
T48 chain: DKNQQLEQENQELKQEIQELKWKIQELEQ

[49] = molecular target: T49, 4H477-bN; assay: two-hybrid library CCNG1
T49 chain: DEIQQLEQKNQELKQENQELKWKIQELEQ

[50] = molecular target: T50, 4H741-bN; assay: two-hybrid library CCNG1
T50 chain: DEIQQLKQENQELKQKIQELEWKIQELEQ

[51] = molecular target: T51, 4H40-bN; assay: two-hybrid library CCNG1
T51 chain: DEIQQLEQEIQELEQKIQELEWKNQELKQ

[52] = molecular target: T52, 4H319-bN; assay: two-hybrid library CCNG1
T52 chain: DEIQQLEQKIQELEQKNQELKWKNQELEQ

[53] = molecular target: T53, N6-AA; assay: two-hybrid library CCmax
T53 chain: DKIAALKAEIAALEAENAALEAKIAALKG

B1: 4H1449-AA (peptide)
chain: DENAALEAKNAALEAKIAALKAEIAALEG
In the case of B1, the interaction score [1] is reported as -1.57, the interaction score [2] is reported as -1.53 and the interaction score [3] is reported as -1.16. The interaction score [4] was -1.1, the interaction score [5] was -1.53 and the interaction score [6] was -1.65. For the same binder, the interaction score [7] was -0.863, the interaction score [8] was -1.66 and the interaction score [9] was -1.39. The interaction score [10] was -1.66, the interaction score [11] was -0.197 and the interaction score [12] was -1.54. It also gave an interaction score [13] of -1.06, an interaction score [14] of -1.66 and an interaction score [15] of -1.34. It also gave an interaction score [16] of -0.875, an interaction score [17] of -0.72 and an interaction score [18] of -1.74. The interaction score [19] was -1.93, the interaction score [20] was -0.585 and the interaction score [21] was -1.09. It also gave an interaction score [22] of -0.319, an interaction score [23] of -1.47 and an interaction score [24] of 2.16. For the same binder, the interaction score [25] was -0.635, the interaction score [26] was -1.1 and the interaction score [27] was -0.636.

B2: O13-bS (peptide)
chain: DKNSQLKQKISELKQKNSELKWEISQLEQ
B2 was tested, and the interaction score [28] was -2.27, the interaction score [29] was -1.08 and the interaction score [30] was -1.16. The interaction score [31] was -2.17, the interaction score [32] was -1.08 and the interaction score [33] was -2.23. For the same binder, the interaction score [34] was -0.819, the interaction score [35] was -1.78 and the interaction score [36] was -1.55. It also gave an interaction score [37] of -1.65 and an interaction score [38] of -0.545.

B3: P3SHb (peptide)
chain: DEIKELEEEIRELEEKNEELKRKNEWLKR
B3 gave an interaction score [39] of 0.81, an interaction score [40] of 1.16 and an interaction score [41] of 0.504. The interaction score [42] was 0.636, the interaction score [43] was 0.389 and the interaction score [44] was -0.0984. The interaction score [45] was 0.0235.

B4: 4H319-bN (peptide)
chain: DEIQQLEQKIQELEQKNQELKWKNQELEQ
With B4 the interaction score [46] was -0.916, the interaction score [47] was -1.38 and the interaction score [48] was -0.892. For the same binder, the interaction score [49] was 0.197, the interaction score [50] was -0.781 and the interaction score [37] was -2.53. It also gave an interaction score [51] of 0.382 and an interaction score [52] of -0.057.

B5: N6-AA (peptide)
chain: DKIAALKAEIAALEAENAALEAKIAALKG
With B5 the interaction score [53] was 1.66.
